This is an account of results in PMC12630831 (Nature Communications, 2025).

Substitutions are numbered along the chain they refer to. In names and notes the source's numbering stands.

The data set concerns the molecule itself. Kind of data set: SDS-PAGE under DTT-free conditions with western blot. (A western blot detects proteins with antibodies after separation by electrophoresis.)

B1: FLAG-tagged PRDX1 C83A expressed in HEK293 cells (natural protein, UniProt Q06830 1-199, looked up)
chain: MSSGNAKIGHPAPNFKATAVMPDGQFKDISLSDYKGKYVVFFFYPLDFTFVCPTEIIAFSDRAEEFKKLNCQVIGASVDSHFAHLAWVNTPKKQGGLGPMNIPLVSDPKRTIAQDYGVLKADEGISFRGLFIIDDKGILRQITVNDLPVGRSVDETLRLVQAFQFTDKHGEVCPAGWKPGSDTIKPDVQKSKEYFSKQK
As for B1, the “stoichiometry N” value worked out at 2.

B2: FLAG-tagged WT PRDX1 expressed in HEK293 cells (natural protein, UniProt Q06830 1-199, looked up)
chain: B1 chain with A83C
With B2, the “stoichiometry N” value worked out at 2.

What is called stoichiometry N is a count of units in the complex or per binding partner.
